The data set concerns the molecule itself. Description: crystal structure.

AALALL [NCAP segment 217-AALALL-222]: the binding result is “binds”. As for GQTVTK [NCAP segment 243-GQTVTK-248], the entry is “binds”; as for GSQASS [NCAP segment 179-GSQASS-184], “binds”.

The values are drawn from doi:10.1101/2021.03.05.434000 (bioRxiv, 2021).
